According to paper PMC9247503, “Oligomerization and Spatial Distribution of Kvβ1.1 and Kvβ2.1 Regulatory Subunits” (Frontiers in Physiology, 2022):
Where “and” joins values, the source holds several entries; their conditions need not be identical. Equal entries are not always repeated.

T1: Kvβ1.1CFP (mouse (from the prefix m in mKvβ1.1), UniProt P63143 1-401)
T1 construct: voltage-gated potassium channel regulatory subunit Kvβ1.1 (splice form 1.1 of Kvβ1), mouse by the prefix m in mKvβ1.1; also called mKvβ1.1 in pECFP-N1; Kvb1.1CFP; source: HEK-293, transfected; in lysate (co-IP) and in cells or membrane sheets (FRET)
T1 sequence (looked up): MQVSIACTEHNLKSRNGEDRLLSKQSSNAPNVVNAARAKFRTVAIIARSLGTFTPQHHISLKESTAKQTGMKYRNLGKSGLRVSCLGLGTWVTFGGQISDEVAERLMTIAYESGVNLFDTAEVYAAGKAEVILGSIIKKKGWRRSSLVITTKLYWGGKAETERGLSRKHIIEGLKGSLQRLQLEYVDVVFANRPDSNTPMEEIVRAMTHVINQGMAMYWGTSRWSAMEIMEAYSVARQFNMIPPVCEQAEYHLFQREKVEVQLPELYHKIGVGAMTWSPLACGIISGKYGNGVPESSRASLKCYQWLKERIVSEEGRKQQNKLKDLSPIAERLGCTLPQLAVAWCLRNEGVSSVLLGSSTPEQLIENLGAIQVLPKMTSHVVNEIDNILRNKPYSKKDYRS

T2: Kvβ2.1YFP (mouse (from the prefix m in mKvβ2.1)), P62482
T2 chain: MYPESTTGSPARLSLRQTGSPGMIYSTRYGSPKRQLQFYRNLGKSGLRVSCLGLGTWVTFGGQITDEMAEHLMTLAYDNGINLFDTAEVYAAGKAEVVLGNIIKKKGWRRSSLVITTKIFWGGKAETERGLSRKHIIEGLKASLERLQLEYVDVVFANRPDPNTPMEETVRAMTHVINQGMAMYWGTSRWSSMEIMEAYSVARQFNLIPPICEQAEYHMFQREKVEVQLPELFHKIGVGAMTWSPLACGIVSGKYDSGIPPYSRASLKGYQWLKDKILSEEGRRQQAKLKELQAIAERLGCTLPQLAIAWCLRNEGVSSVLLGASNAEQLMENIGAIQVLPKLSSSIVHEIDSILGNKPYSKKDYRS

T3: Kvβ2.1CFP (mouse (from the prefix m in mKvβ2.1)), P62482
T3 chain: T2 chain

B1: Kvβ1.1YFP (natural protein, mouse (from the prefix m in mKvβ1.1), UniProt P63143 1-401, looked up)
chain: T1 sequence (looked up)
notes: voltage-gated potassium channel regulatory subunit Kvβ1.1 (splice form 1.1 of Kvβ1), mouse by the prefix m in mKvβ1.1; also called mKvβ1.1 in pEYFP-N1; source: HEK-293, transfected; in cells or membrane sheets (FRET) and in lysate (semidenaturing gel)
B2: Kv1.3YFP (natural protein, UniProt P15384 1-525, looked up)
chain: MTVVPGDHLLEPEAAGGGGGDPPQGGCVSGGGCDRYEPLPPALPAAGEQDCCGERVVINISGLRFETQLKTLCQFPETLLGDPKRRMRYFDPLRNEYFFDRNRPSFDAILYYYQSGGRIRRPVNVPIDIFSEEIRFYQLGEEAMEKFREDEGFLREEERPLPRRDFQRQVWLLFEYPESSGPARGIAIVSVLVILISIVIFCLETLPEFRDEKDYPASPSQDVFEAANNSTSGASSGASSFSDPFFVVETLCIIWFSFELLVRFFACPSKATFSRNIMNLIDIVAIIPYFITLGTELAERQGNGQQAMSLAILRVIRLVRVFRIFKLSRHSKGLQILGQTLKASMRELGLLIFFLFIGVILFSSAVYFAEADDPSSGFNSIPDAFWWAVVTMTTVGYGDMHPVTIGGKIVGSLCAIAGVLTIALPVPVIVSNFNYFYHRETEGEEQAQYMHVGSCQHLSSSAEELRKARSNSTLSKSEYMVIEEGGMNHSAFPQTPFKTGNSTATCTTNNNPNSCVNIKKIFTDV
notes: voltage-gated potassium channel Kv1.3 (α subunit); Used as the tetrameric positive control; source: HEK-293, transfected; in cells (FRET) and in lysate (semidenaturing gel)
B3: Kvβ2.1YFP, P62482 1-367 (natural protein)
chain: T2 chain
B4: Kvβ2.1CFP (natural protein, mouse (from the prefix m in mKvβ2.1), UniProt P62482 1-367, looked up)
chain: T2 chain
notes: voltage-gated potassium channel regulatory subunit Kvβ2.1, mouse by the prefix m in mKvβ2.1; also called mKvβ2.1 in pECFP-N1; source: HEK-293, transfected; in lysate (co-IP) and in cells or membrane sheets (FRET)
B5: Kvβ2.1YFP (natural protein, mouse (from the prefix m in mKvβ2.1), UniProt P62482 1-367, looked up)
chain: T2 chain
notes: voltage-gated potassium channel regulatory subunit Kvβ2.1, mouse by the prefix m in mKvβ2.1; also called mKvβ2.1 in pEYFP-N1; Kvb2.1 YFP; source: HEK-293, transfected; in cells or membrane sheets (FRET) and in lysate (semidenaturing gel)

Columns and labels:
[1] = biological target: the molecule itself; assay: semidenaturing SDS-PAGE with immunoblot; total lysates of transfected HEK-293 cells, not boiled, 8% SDS-PAGE, immunoblot with anti-GFP antibody
Kvβ1.1CFP = biological target: T1, Kvβ1.1CFP; assay: FRET or BRET; linear unmixing FRET (lux-FRET) on suspensions of living HEK-293 cells in PBS at 37°C, different donor molar ratios; fit of apparent EfD and EfA against xD gives E and n (units per complex); conditions: partners not purified
[2] = biological target: T2, Kvβ2.1YFP (mouse (from the prefix m in …)); assay: semidenaturing SDS-PAGE with immunoblot; total lysates of transfected HEK-293 cells, not boiled, 8% SDS-PAGE, immunoblot with anti-GFP antibody; conditions: remark: other sources report otherwise
[3] = biological target: T3, Kvβ2.1CFP (mouse (from the prefix m in …)); assay: FRET or BRET; linear unmixing FRET (lux-FRET) on suspensions of living HEK-293 cells in PBS at 37°C, different donor molar ratios; fit of apparent EfD and EfA against xD gives E and n (units per complex); conditions: remark: other sources report otherwise
Kvβ1.1YFP = biological target: B1; assay: as above; conditions: partners not purified

FRET efficiency (E) (Kvβ1.1CFP) [%] | stoichiometry N (Kvβ1.1CFP) | Binder | stoichiometry N [1] | also measured
30.2 | 1.93 | B1 | 2 and 4 | 
 |  | B2 | 2 and 4 | 
 |  | B3 |  | stoichiometry N [2]: 2 and 4; FRET efficiency (E) [3]: 22.3%; stoichiometry N [3]: 2.09
 |  | B4 |  | FRET efficiency (E) (Kvβ1.1YFP): 30.4%; stoichiometry N (Kvβ1.1YFP): 1.99
32.5 | 1.88 | B5 |  | 
